Assay results taken from the DeepSol protein solubility set.

Test: soluble on expression in E. coli; label from the status in PepcDB or PDB records

| Sequence | soluble on expression in E. coli |
| --- | --- |
| MKALKLYGVEDLRYEDNEKPVIESANDVIVKVRATGICGSDTSRYKKMGPYIKGMPFGHEFSGVVDAIGSDVTHVNVGDKVTGCPAIPCYQCEYCLKGEYARCEKLFVIGSYEPGSFAEYVKLPAQNVLKVPDNVDYIEAAMVEPSAVVAHGFYKSNIQPGMTVAVMGCGSIGLLAIQWARIFGAAHIIAIDIDAHKLDIATSLGAHQTINSKEENLEKFIENHYANQIDLAIESSGAKVTIGQILTLPKKGGEVVLLGIPYDDIEIDRVHFEKILRNELTVCGSWNCLSSNFPGKEWTATLHYMKTKDINVKPIISHFLPLEKGPETFDKLVNKKERFDKVMFTIY | not soluble |
| MEYRLKAYYREGEKPSALRRAGKLPGLMYNRHLNRKVYVDLVEFDKVFRQASIHHVIVLELPDGQSLPTLVRQVNLDKRRRRPEHVDFFVLSDEPVEMYVPLRFVGTPAGVRAGGVLQEIHRDILVKVSPRNIPEFIEVDVSGLEIGDSLHASDLKLPPGVELAVSPEETIAAVVPPEDVEKLAEEAAAEVAEPEVIKKGKEEEEE | soluble |
| MGSDKIHHHHHHMQRKKIGVALGSGAAKGWAHIGVLNALTEMGIEVDVVAGCSIGALVGAAYATNNLSSMDRWVRSFGYWDVIRLMDLSWQRGSLLRGDRVFNSVKHLLHTTQIEDCDIKYGVVTTNLSTGRELWLTEGDLHQAMRASCSMPGLLSPVRFNDYWLVDGAVVNPVPVSLARAMGADIVIAVDLQHDASLNHQDLLSIKPTASDIDAENVPQDWRSRIRERLLRGRRHPAESSPTAMEIMSTSIQILENRLKMTRMAGDPPDVLLQPHCPQIATLDFHRAQEAIDAGYKAVEKMRDELLPLAKEA | not soluble |
| MRHMSGDHAALVLGAGAGRRLGRSKQLLMRDGEPLLRRAARIALLTAPRRCVVVLGADADTLSEVLQDLDIEILRHPDWSEGMGSSLAALRRHVQGDPALRRSLILGCDQPALDAPHLRSLLEEADRAVSGCATSGYSGVRGIPAVVTHTAWADVPLQADSGLRGLFASLDMQSLGCVSAPALALDIDTPADLATAQQRGWVDAELEHHHHHH | not soluble |
| AHHHHHHGSPDVYEPIMGAFSLARRLWKMIVEKKGLPTGDDVASLLENLGFERVCTGSGLAVFRNRFVIALLIPRENMIVVDFLSSSGELSDALELIAYYDKEIECYVVEILPSNELEYEENLGIEPVIIDGKTFELRSYPVLGDFKQGKDKVVLKIDREVYELWKESGKLDVCPVCGGHLRWKQGKALCTECGIEVVVDEEH | soluble |
| MFFKKNLTTAAICAALSVAAFSAMATDSTDTELTIIGEYTPGACTPVVTGGGIVDYGKHHNSALNPTGKSNKLVQLGRKNSTLNITCTAPTLIAVTSKDNRQSTIVALNDTSYIEKAYDTLVDMKGTKNAFGLGSAPNGQKIGAASIGIDRSNGGIHAADDTGEIPVDLIQTDHWSAATPTWKASSNGAFCSLTSCSAIERGYSVAKTGELTPVAITAVTFPLLIDAAVNDNTILGSDETIKLDGNVTISVQYL | not soluble |
| MGSDKIHHHHHHMVGIGFRKDFAAKFLNTTDLQPDFIEVAPENWIGIGGLWKKRLQQALEKYPLYTHGLSLSIGSPDALDFDLLKGVKKFLAETGAKVYSEHLSYSKCDNAHLYDLLPIPFTHDAVKHIAKRIQTIQDFLERRLAIEIVSYYSPVAAEMSELEFVNAILQESDCDLLLDVNNIYVNGFNHNYDPYAFINQLPLERVAYIHIAGHDQVSETLIIDTHGEAIVDPVYYLYQYTMNQLQRDVPTLLERDFNIPQLSELQGEIDRLKKIKADCLTKELYGIQR | not soluble |
| MRFITETELRDLYKAEPFTAYTLEPRTKLTPEARQFLVDRGIKLAEAQDCKSKSTGNGKSGTEQESWNVLRLRRRMESLESLFLMVGANLLSGGSTVLAEEVFALGRCFSEVKKTAWEQTSPVNLQFQDWSEAEMKNCSTYLGKHFDITEFHVRTENGAAIASLNHLRATLRELESAVLEAYWDEEFNVCSRQDLIEKINLIMNILCVMIWKCLGGQQCKT | not soluble |
| MTMTQQIKAVVYDFGGVLLSYEGVMEKWVAMSRSLGLPDDAVHSESVGIEFSQWLGPDRSLFLGTLTVDDLEGGLFLQYLKHKYGNKLTDNVVIKPFTECLRGENVKIHKNMQKTVEILHKKGFKTAMLTNNMFLDKEHKETRLPCDLTHFDEVVESCLEHLMKPDARFYHLVEKRLGVKPEEIVFLDDLHENIEAAEKLGWNTILVEDIEKAIHELEGFTKVKLI | not soluble |
| MSKRYAVVLAAGQGTRMKSKLYKVLHPVCGKPMVEHVVDQISTLNVDKVVTIVGHGAEKVQEHLAGKSEFVKQDEQLGTAHAVLQAKAELAGKDGVTLVVCGDTPLIEASTMEALLKYHHEKRAKATILTTVIEDPTGYGRIIRDDLGIVEKIVEHKDATEKEQRISEINTGTYCFDNKALFEALENVSNDNVQGEYYLPDVIKILKDSDEVVAAYRMESFEESLGVNDRIALAEASKLMQRRINENHMRNGVTLVNPESTYIDIDVKIGQDTVIEPGVMLRGKTVIGDDCVVTSGSEIVNSVIGERVHVRTSSIFESKVGDDVQIGPYAHLRPESDIHDHVKIGNYVETKKAVVGEGTKLPHFIYMGDAEIGKNVNVGCGSIAVNYDGKNKAKTIIGDNVFVGCNSNLIAPVKVGDRAFIAAGSTITKDVPEDALGIARAKQDNKLGYAKHLNHSK | not soluble |
| MAGDPMVNRETLIARIEQELVQAEQAQHDHDFEKHMYAIHILTSLYASTSNTPHIGEQQMNRRIANHNQMPQSQITQPTHQVTAAEIEAMGGKVNTHSAHHHNKSYSQPSNQQQRLATDDDIGNGESIFDFLEHHHHHH | not soluble |
| MGSDKIHHHHHHQPPFPAPPAVRDIDCLEQDLMVYARALPQPDAPLLTLQDQERQTGFFLRRFFAAWDMRAPSMPRHTMFADLRATLDGKGWGANLLPVPPARTESLWQRCRTGEYPSLAVPAIITGNTSLRMAPDDEPFFRDPARAGEGYPFDYFQYSALWAGMPVFVVHASSDGGWLLCETPLAAGWVRARDVAYVDSGFMNAYRTGMYAAVVADDTPLRTAEGRWVLTAHTGAVFPVDKADAAGLVLRVPVRGADGGAGIRLVHVSYGAAARMPLPLTPVAVAMVGNGMMRQPYGWGGLLENRDCSAAMHDLFAPFGIWLPRNSSQQARAGALVSLEEMTPPQREAHILEQGVPFFSFIWMRGHIGLYLGPDRQDCAAGKPLMFHNVWGIRTGGGRAPEGRLVIGRAVVTTLHAGEEYPQVRKNWMLDRIRGLTLLPPQVP | not soluble |
| MDKLNKITVPASQKLRQLQKMVHDIKNNEGGIMDKIKKLKVKGPPSVPRRDYALDSPADEEEQWSDDFDSDYENPDEHSDSEMYVMPAEETGDDSYEPPPAEQQTRVVHPALPFTRGEYVDNRSSQRHSPPFSKTLPSKPSWPSAKARLASTLPAPNSLQKPQVPPKPKDLLEDEADYVVPVEDNDENYIHPRESSPPPAEKAPMVNRSTKPNSSSKHMSPPGTVAGRNSGVWDSKSSLPAAPSPLPRAGKKPATPLKTTPVPPLPNASNVCEEKPVPAERHRGSSHRQDTVQSPVFPPTQKPVHQKPVPLPRFPEAGSPAADGPFHSFPFNSTFADQEAELLGKPWYAGACDRKSAEEALHRSNKDGSFLIRKSSGHDSKQPYTLVAFFNKRVYNIPVRFIEATKQYALGKKKNGEEYFGSVVEIVNSHQHNPLVLIDSQNNTKDSTRLKYAVKVS | soluble |
| MGSDKIHHHHHHVNSDNNPNQISDIKPILKVYIENSGSMDGYMCDGSQLKDAIFDYVSDLSTCVDTTQLYYINNRVIPYHADLEQYIKTMNPITFQKAGGNRSNSDLSKMLSTVLDAMTDSTVSIFVSDCILDLPVSDAQRFLSTCQISIKNTINKGRKNIPLLGVEILKMKSDFNGKYFYQNGGSEVLTNVKRPYYIWIFGNSNVLAKLNTEVLFKGLEKYGYDNIISYCPKTSIPYDITNRALISKTINPIKGDYNATIRADFCTTLQSEDVLLNLDNYSFNNQNLIIENIKPIIATEREYSHFINITIPKGVNIAEDYLILKAPNMPSWVLESNDESGENVKGNLDKTTGIKYLIGGVSDAYKKDNVLTTLKFTVKRK | not soluble |
| MGSDKIHHHHHHMIELKNVSMIFNPGTVNENQAISNISLKVREGDFITVIGSNGAGKSTLFNLIAGTITPSSGSIFLNDRNITREPEYKRARYIGRIFQNPLLGTASTMSLEDNMMITYKKGFKWLKRSLNHKMREYFRTELVQLKMGLEDRMKENLALFSGGQRQALTLLMMVLSRPDLILLDEHTAALDPKNAQIVLELTDKFIREYNLTAMMITHNMSHAIEYGNRLLMMDKGEIIFEAEGEEKRALTVEKLIDKFHQIRHTSFENDRTLLSDD | not soluble |
| MFFKQFYDNHLSQASYLVGCQRTGEAIIIDPVRDLSKYIEVADSEGLTITQATETHIHADFASGIRDVAKRLNANIYVSGEGEDALGYKNMPSKTQFVKHGDIIQVGNVKLEVLHTPGHTPESISFLLTDLGGGSSVPMGLFSGDFIFVGDIGRPDLLEKSVQIKGSTEISAKQMYESVQNIKNLPDYVQIWPGHGAGSPCGKALGAIPISTIGYEKINNWAFNEIDETKFIESLTSNQPAPPHHFAQMKQVNQFGMNLYQSYDVYPSLDNKRVAFDLRSKEAFHGGHTKGTINIPYNKNFINQIGWYLDFEKDIDLIGDKSTVEKAKHTLQLIGFDKVAGYRLPKSGISTQSVHSADMTGKEEHVLDVRNDEEWNNGHLDQAVNIPHGKLLNENIPFNKEDKIYVHCQSGVRSSIAVGILESKGFENVVNIREGYQDFPESLKLEHHHHHH | soluble |
| ATVKFKYKGEEKEVDISKIKKVWRVGKMISFTYDEGGGKTGRGAVSEKDAPKELLQMLEKQKK | soluble |
| MGSDKIHHHHHHMYLLVDVGNTHSVFSITEDGKTFRRWRLSTGVFQTEDELFSHLHPLLGDAMREIKGIGVASVVPTQNTVIERFSQKYFHISPIWVKAKNGCVKWNVKNPSEVGADRVANVVAFVKEYGKNGIIIDMGTATTVDLVVNGSYEGGAILPGFFMMVHSLFRGTAKLPLVEVKPADFVVGKDTEENIRLGVVNGSVYALEGIIGRIKEVYGDLPVVLTGGQSKIVKDMIKHEIFDEDLTIKGVYHFCFGD | not soluble |
| MADEINEIREEQEQLAPFDPSKKKKKKKVVIQEPVEDLAESSQTEKSDSLPVNDGLESSFTGMKKKKKKPTESSLLNNESVDAGEDLDEIANDEQEGEEGIVLQQRYPWEGSERDYIYDELLGRVFNILRENNPELAGDRRRTVMRPPQVLREGTKKTVFVNFMDLCKTMHRQPDHVMQYLLAELGTSGSLDGQQRLVVKGRFAPKNFEGILRRYITDYVICLGCKSPDTILSKENRLFFLRCEKCGSQRSVAPIKTGFVARVSRRKT | soluble |
| MAHHHHHHMLPHSVPTSPHQERDRPLEQMTDEELRRELVMLIRTNAILAEESAGLQADISALCEESVRFQQSTEIEEDKVTNQLLRRLQSEEVQKHRFHHQILCEEKARRKIMDQITQVRQQMELEKQLEQEQEVQRMELQRKLIDVVNKKIEVERQLLEERRVQLEALTTKLASIKEGSLAAKSKVDGAVGSRGTQGPSASSQQCQSGTANMTHESPAAAAAAAVAASSQPPPVKTETVPSSVDLPASDVAGDDTHGTIIRLEEQLNRLLEQHAAATQASATNESLCTELGRNLETIQQAASVDRARTLKLKEELQETKRRVAVLEQRAAVGTAYAASDDSSDLPTPSVSSLYDDKRRESLLNCHQRYPSSCVPPSCSASEAGEDTRSV | not soluble |
| MSLKLITNYQFLTYDGNYFHAEVIQSVLAECERAGIEIDTVLLDRDHQNDMEKFWDQIRSGAAEGVILVGVDMPPMLEVVRALGVPVVMVNGNDPNCQFDSVMPAFRDGSRIATRYLIEQGHRDIVHVTHLYRPLIRRRLDGFREALEEAGLPFSFERNVIDISSGHFSAEQAASVVAERIANGTLNATALFCVSDYTAFGVVQGILRSGKTVPGDYSVASFDDLPLAQLCRPALTSVGVDRRALGRIAVERLLSRLESVEGPTLRIEVGARLTIRDSTRPEGHHHHHH | soluble |
